Reference: patent US20260167679A1, “FUSION PROTEIN TARGETING MITOCHONDRIA, METHOD OF MAKING AND USE THEREOF” (UNIVERSITY OF ROCHESTER, priority 2020, published 2026)

Legend:
Drosophila melanogaster = test: Drosophila lifespan; type: in vivo; conditions: activation of mtON (ATR, white light)
Description: (C) White light increases the lifespan of mtON+ATR (red) Drosophila compared to vehicle (ethanol, blue) Drosophila.

[1] = tested on: isolated C. elegans mitochondria; test: ATP measurement in isolated mitochondria (luciferase); type: biochemical, Caenorhabditis elegans; conditions: isolated mitochondria supplied with ADP, mtON activation
Procedure: Relative ATP levels were determined in isolated mitochondria given a known amount of ADP to test the ability of mtON to drive ATP synthesis. A luciferase bioluminescence kit was used according to the manufacturer's instructions (Invitrogen™ Molecular Probes™, A22066). Mitochondria were stirred in MRB at 0.5 mg/ml with 1 mg/ml fat-free BSA, 600 μM ADP, and 2 μM rotenone. 5 mM succinate was used for a control for maximum ATP level, and 0.001 mg/ml oligomycin A was used as a zero ATP synthesis control. Mitochondrial suspensions were immediately frozen with liquid nitrogen after 1, 5, or 10 min light exposure (XCite LED, 0.02 mW/mm^2). Samples were then thawed on ice, centrifuged at 14,800 g, and supernatant was collected and run at 1:100 dilution in MRB in the luminescence assay. Oligomycin A control values were subtracted from experimental reads, and data were then normalized to luminescent signal from succinate control samples (complete ADP conversion confirmed by monitoring 02 consumption rate transitions).

C. elegans = test: Lifespan of mtON-expressing worms; type: in vivo, Caenorhabditis elegans
Description: Light treatment began at day 1 of adulthood for all experiments, a, Survival curves of mtON-expressing animals (extrachromosomal array). […] One-way ANOVA with Tukey's test; n=30 animals for day 4 conditions and 40 animals for day 10. […] The dotted arrow represents the molecular mechanisms to be investigated that link Δψm to aged physiology.
A) survival curve with the same conditions as FIG. 15B, but with light intensity (0.005 mW/cm2) below the threshold for mtON activation (0.01 mW/cm2). […] B) Survival curves of mtON-expressing animals versus mtON-expressing animals in a long-lived genetic background containing a constitutively active AMPK mutation.
Strain APW32 expresses mtON as an extrachromosomal array (mtON ext. chr. array), and strain APW273 expresses mtON in single copy through CRISPR/Cas9 genome integration (mtON CRISPR). See methods section for genotype details. Light intensity was varied to maintain temperature as best as possible, and proximal temperature readings directly adjacent to assay plates are reported to show local temperature variability from different incubators and from different light sources. All incubators were set to 20° C.

[2] = tested on: isolated C. elegans mitochondria; test: Mitochondrial membrane potential measurement (TMRE) in isolated mitochondria; type: biochemical, Caenorhabditis elegans; conditions: mtON activation (+ATR, +light), rotenone, no added substrate, non-phosphorylating
Procedure: Isolated mitochondria at 0.5 mg/ml were stirred in mitochondrial respiration buffer (MRB: 120 mM KCl, 25 mM sucrose, 5 mM MgCl2, 5 mM KH2PO4, 1 mM EGTA, 10 mM HEPES, 1 mg/ml FF-BSA, pH 7.35) at 25° C. in the presence of 2 μM rotenone and 5 mM succinate where indicated. 300 nM tetramethylrhodamine ethyl ester (TMRE, Thermo Fisher, T669) was added to observe mitochondrial membrane potential in quench mode. Under quenching conditions, TMRE fluorescence is low in the presence of a AWm. Upon addition of a protonophore (e.g., FCCP), TMRE will exit mitochondria and dequench and increase total fluorescence. TMRE signal was measured by Cary Eclipse Fluorescence Spectrophotometer (Agilent Technologies) using a 335-620 nm excitation filter and a 550-1,100 nm emission. […] Increasing illumination time exposed mitochondria to more photons (calculated as fluence, J/cm^2). […] The average fluorescence intensity after addition of 2 μM FCCP (maximum fluorescence in quench mode) was subtracted from the starting test condition to give a change in fluorescence corresponding to changes in ΔΨm (ΔF for conditions without succinate, and ΔFmax for conditions with succinate). To represent polarization of the ΔWm, the ratio of change in fluorescence (DF, FCCP fluorescence minus experimental fluorescence) was used to the maximum change in fluorescence generated by succinate-driven Δψm (ΔFmax).

HEK293T cells = test: Luciferase-based ATP assay in HEK293T cells; type: cell-based; conditions: 590 nm light, with or without 2-DG, vs cells in the dark
Procedure: (A) HEK293T cells expressing mtOn or GFP were illuminated with 590 nm light for 2 hours, followed by a luciferase-based ATP assay. (B) Same set-up as in (A), except HEK293T cells were treated with 10 mM 2-DG for 2 hours prior to illumination. (C) Activated CD8+ T cells were sorted based on GFP expression. GFP negative cells were used as the mock control. CD8+ T cells received 590 nm light for 30 minutes, followed by a luciferase-based ATP assay. All data shown as mean±SEM and analyzed by an unpaired t-test (n=4-7).
To test whether mitochondrial polarization driven by light-activated proton transport leads to enhanced ATP production (FIG. 9, panel A), the study transfected HEK293T cells and mouse CD8+ T cells with mtON, illuminated the cells (590±10 nm, 0.32 mW/mm^2 at 1 Hz), and immediately lysed them to detect ATP. 2-Deoxy-D-glucose (2-DG), a glucose analog, was used to inhibit glycolysis and thus mimic the glucose-deficient TME.
To test whether the mitochondrial polarization driven by light-activated proton transport leads to enhanced ATP production, we transfected HEK293T cells and mouse CD8+T cells with mtON, illuminated (590±10 nm, 0.32 mW/mm^2 at 1 Hz) them, and immediately lysed to detect ATP. 2-Deoxy-D-glucose (2-DG), a glucose analog, was used to inhibit glycolysis and thus mimic the glucose-deficient tumor microenvironment.

B1: mtON: fusion of the 187 N-terminal amino acids of mouse IMMT1 to the light-activated proton pump (Mac) from Leptosphaeria maculans (protein)
chain: MLRACQLSGVTVAAQSCLCGKFVLRPLRPCRRYSTSSSSGLTAGKIAGAGLLFVGGGIGGTILYAKWDSHFRESVEKTIPYSDKLFGMVLGSAPYTVPLPKKPVQSGPLKISSVSEVMKDSKLPVAQSQKTKGDTPASAASTGAAQIISAAGDTLSVPAPAVQHEDTIKTECPNTNEGKSTSETTEEPAGLIVDQFEEVLMKTSQLFPLPTATQSAQPTHVAPVPTVLPDTPIYETVGDSGSKTLWVVFVLMLIASAAFTALSWKIPVNRRLYHVITTIITLTAALSYFAMATGHGVALNKIVIRTQHDHVPDTYETVYRQVYYARYIDWAITTPLLLLDLGLLAGMSGAHIFMAIVADLIMVLTGLFAAFGSEGTPQKWGWYTIACIAYIFVVWHLVLNGGANARVKGEKLRSFFVAIGAYTLILWTAYPIVWGLADGARKIGVDGEIIAYAVLDVLAKGVFGAWLLVTHANLRESDVELNGFWANGLNREGAIRIGEDDGAR
modifications: Synthetic Complete mtON fusion protein sequence
For B1, the lifespan (Drosophila melanogaster) was “extends Drosophila lifespan”, the ATP levels [1] was “increased ATP levels” and the lifespan (C. elegans; CRISPR insertion, vs light control) was “significantly extended lifespan compared to the light control”. For the same molecule, the lifespan (C. elegans; extrachromosomal array, +ATR+light from day 1 of adulthood) was “significantly extended lifespan”, the “light intensity threshold for mtON activation” value (C. elegans; in vivo) was 0.01 mW/cm2 and the lifespan (C. elegans; light below the threshold to activate mtON (0.005 mW/cm2)) was “not extended”. For the same molecule, the lifespan (C. elegans; long-lived worms with constitutively active AMPK signaling) was “further increased lifespan”, the “lifespan extension in presence of FCCP” value (C. elegans; mtON activation plus mitochondrial uncoupler FCCP) was “sensitive” and the lifespan (C. elegans; mtON activation throughout life vs control populations) was “significant increase in lifespan”. For the same molecule, the “polarization of Δψm (TMRE)” value [2] was “polarize the Δψm as much as ETC-driven respiration” and the ATP (HEK293T cells) was “significant increase in ATP”.
